The results in this text go back to patent US20140170677A1.

The target of experiment [1] is human CXCR4 (Chemokine receptor 4) (human) (UniProt P61073). As to the kind of experiment: FACS on MDA-MB-231 cells (endogenous CXCR4), antibody at 10 ug/ml.
The target is the same in experiment [2]. Description: FACS on Hela cells (endogenous CXCR4), antibody at 10 ug/ml.
Experiment [3] shares this target. As to the kind of experiment: FACS on U937 cells (endogenous CXCR4), antibody at 10 ug/ml.

Chain of UniProt P61073 (P61073 whole entry): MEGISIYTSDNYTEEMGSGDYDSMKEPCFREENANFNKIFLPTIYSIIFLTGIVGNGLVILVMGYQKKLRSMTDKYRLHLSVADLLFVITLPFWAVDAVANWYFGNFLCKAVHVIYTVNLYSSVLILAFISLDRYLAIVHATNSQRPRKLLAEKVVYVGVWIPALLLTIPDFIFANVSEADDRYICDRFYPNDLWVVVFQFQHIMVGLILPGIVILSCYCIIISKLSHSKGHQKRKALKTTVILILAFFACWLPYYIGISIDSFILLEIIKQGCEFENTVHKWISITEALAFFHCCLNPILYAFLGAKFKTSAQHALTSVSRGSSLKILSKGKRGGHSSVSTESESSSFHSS

B1: anti-CXCR4 I-3859 monoclonal antibody (Mab) (antibody, V domains shown)
VH: QVQLKESGPGLVAPSQSLSITCTVSGFSLTDYGVYWVRQPPGKGLEWLGMIWGDGTTDYNSALKSRLSISKDNSKSQVFLKMNTLQTDDTARYYCARGRQFGFDYWGQGTTLTVSS
VL: DIVMSQSPSSLAVSAGEKVTMRCKSSQSLFNSRTRKNYLAWYQQKPGQSPKLLIFWASIRESGVPDRFTGSGSGTDFTLTISSVQAEDLAVYYCKQSYNLRTFGGGTKLEIK
B1: the MFI stood at 59 MFI in experiment [1], 633 MFI in experiment [2] and 246 MFI in experiment [3].
